Measurements: US20220356229A1 (published 2022)
Positions count from the first letter of the chain named.

B1: antibody 423 (antibody, V domains shown)
VH: EVQLVESGGGLIQPGGSLRISCAASGFTVRNNHMSWVRQAPGKGLEWVSVFYRGGTTYYADSVKGRFTISRDDSKNTVDLQMNSLRGEDTAVYYCARGLSVAASGYFDCWGQGTLVTVSS
VL: DIQMTQSPSSVSASVGDTVTITCRANQGISSWLAWYQQVPGKAPELLIYATSTLQSGVPSRFSGSGSGTDFTLTISSLQPEDFATYYCQQANSFPFTFGPGTKVDIK
B2: antibody 431 (antibody, V domains shown)
VH: QVQLVESGGGVVQPGRSLRLSCAASGFTFSSYAMHWVRQAPGKGLEWLAVISYDGSNKYYADSVKGRFTISRDNSKNTLYLQMNSLRAEDTAVYYCARSFRGGYYYGMDVWGQGTTVTVSS
VL: DIQLTQSPSFLSASVGDRVTITCRASQGISSYLAWYQQKPGKAPKLLIYAASTLQSGVPSRFSGSGSGTEFTLTISSLQPEDFATYYCQQLNSYPLFTFGPGTKVDIK
B3: antibody 446 (antibody, V domains shown)
VH: QVQLVESGGGVVQPGRSLRLSCAASGFTFSSYAMHWVRQAPGKGLEWVAVISYDGSNKYYADSVKGRFTISRDNSKNTLYLQMNSLRAEDTAVYYCARPNSGSYFGYFQHWGQGTLVTVSS
VL: QSVLTQPPSVSGAPGQRVTISCTGSSSNIGAGYDVHWYQQLPGTAPKLLIYGNSNRPSGVPDRFSGSKSGTSASLAITGLQAEDEADYYCQSYDSSLSGFYVFGTGTKVTVL
B4: antibody 439 (antibody, V domains shown)
VH: B2 VH with L48V, S99P, F100P, Y104S, G107P, M108F, V110P, T116L
VL: not shown
B5: antibody 454 (antibody, V domains shown)
VH: QVQLVQSGAEVKKPGASLKVSCKASGYIFTGYYMHWVRQAPGQGLEWMGWISPNSGGTKYAQKFQGRVTMTRDTSISTAYMELSRLRSDDSAVYYCAREPYYDILTGYYTPRRYLDYWGQGTLVTVSS
VL: QSALTQPASVSGSPGQSITISCTGTSSDVGDYNYVSWYQQHPGKVPKLMIYDVSHRPSGVTNRFSGSKSGNTASLTISGLRAEDEADYYCSSYTSSSTYVFGTGTKVTVL
B6: anti-SARS-CoV-2 antibody 1081 (antibody, V domains shown)
VH: QITLKESGPTLVKPTQTLTLTCTFSGFSLSTSRVGVGWIRQPPGKALEWLALIYWNDGKLYSPSLKSRLTITKDTSKNQVVLTLTNMDSVDTATYFCARGQTGTPLYDAFDFWGRGTMVTVSS
VL: SYVLTQPPSVSVAPGKTAGITCGGDNFETKSVSWYQHKPGQAPVLVVYGNANRPSGIPERFSASKSGNTATLTISRVEAGDEADYYCQVWDSRSFHYVVFGGGTKLTVL
B7: anti-SARS-CoV-2 antibody 1000 (antibody, V domains shown)
VH: EVQLVQSGAEVKKPGESLKISCKASGYSFTIYWIGWVRQMPGKGLEWMGVIYPGDSDTRYSPSFQGQVTISADKSISTAYLQWSSLKASDTAMYYCALGYHSGSYPFNWFDPWGQGTLVTVSS
VL: EIVMTQSPATLSVSPGERATLSCRASQSVSSNLAWYQQKPGQTPRLLIYGASTRATGIPARFSGSGSGTEFTLTISSLQSEDFAVYYCQQYDNLLTFGGGTKVEIK
B8: anti-SARS-CoV-2 antibody 1098 (antibody, V domains shown)
VH: EVQLLESGGGLVQPGGSLRLSCAASGFTFNSYAMSWVRQAPGKGLEWVSAISGSGGSTYYADSVKGRFSISRDNAKNTLFLQMNSLRAEDTAVYYCARSGGNFDYWGQGTLVTVSL
VL: SYELTQPPSVSVSPGQTARITCSGDVLAKRYVYWYQQKPGQAPVLVIYRDSERPSGIPERFSGSSSGTTVTLTISGVQAVDEADYYCQSADSSGTLYVFGTGTKVTVL
B9: anti-SARS-CoV-2 antibody 989 (antibody, V domains shown)
VH: QVQLVQSGAEVKKPGASVKVSCKASGYTFTNYYMHWVRQAPGQGLEWMGIINPSDDNTTYAQKIQGRVIMTRDTSTSTVYMELSSLRSEDTAVYYCARAFAEWELLLDYWGQGTLVTVSS
VL: not shown
B10: anti-SARS-CoV-2 antibody 1118 (antibody, V domains shown)
VH: QVQLVESGGGVVQPGRSLRLSCAASGFTFSTYAMHWVRQAPGKGLEWVAVISYDGSNKYYSDSVKGRFTISRDNSKNTLYLQMNSLRAEDTAVYYCARAHTSGWPLGDYFDYWGQGTLVTVSS
VL: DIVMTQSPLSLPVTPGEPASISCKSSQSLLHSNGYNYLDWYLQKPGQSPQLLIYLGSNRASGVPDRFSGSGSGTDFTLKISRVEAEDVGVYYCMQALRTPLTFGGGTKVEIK
B11: anti-SARS-CoV-2 antibody 1091 (antibody, V domains shown)
VH: QVQLVESGGGVVQPGRSLRLSCAASGFTFSNYAMHWVRQAPGKGLEWVAVISYDGSNKYYADSVKGRFTISRDNSKNTLYLQMNSLRAEDTAVYYCARDKLLWFGELLFDMDVWGKGTTVTVSS
VL: DIQMTQSPSSLSASVGDRVTITCRASQGISNYLAWFQQKPGKAPKSLIYDASSLQSGVPSKFSGSGSGTDFTLTISSLQPEDFATYYCQQYNSYPPSFGPGTKVDIK
B12: anti-SARS-CoV-2 antibody 923 (antibody, V domains shown)
VH: EVQLVESGGGVVRPGGSLRLSCAASGFIFDDYDMTWVRQAPGKGLEWVSGISWNGGNTGYADSVKGRFTISRDNAKNSLYLQMNSLRAEDTALYHCAVIMSPIPRYSGYDWAGGAFDIWGQGTMVTVSS
VL: SSELTQDPAVSVALGQTVRITCQGDSLRSYYASWYQQKPGQVPILVIYDKNNRPSGIPDRFSGSSSGNTASLTITGAQAEDEADYYCNSRDSSGNAVVFGGGTKLTVLG
B13: anti-SARS-CoV-2 antibody 1037 (antibody, V domains shown)
VH: QITLKESGPTLVKPTQTLTLTCTFSGFSLSTSGVGVGWIRQPPGKALEWLALIYWDDDKRYSPSLKSRLTITKDTSKNQVVLTMTNMDPVDTATYYCAHHTITRINDYWGQGTLVTVSS
VL: QSALTQPASVSGSPGQSITISCTATSSDVGAYNYVSWYQQHPGKAPKLMIYDVSKRPSGVSNRFSGSKSGNTASLTISGLQAEDEADYYCSSYTSSSTVFGGGTKLTVLG
B14: anti-SARS-CoV-2 antibody 555 (antibody, V domains shown)
VH: QVQLVQSGAEVKKPGSSVKVSCKASGGTFSNYAISWVRQAPGQGLEWMGRIIPILGIANYAQKFQGRVTITADKSTSTAYMELSSLRSEDTAVYYCARGYYEARHYYYYYAMDVWGQGTAVTVSS
VL: not shown
B15: anti-SARS-CoV-2 antibody 1075 (antibody, V domains shown)
VH: QVQLVQSGAEVKKPGASVKVSCKVSGYTLIELSMHWVRQAPGKGLEWMGGFDPEDGETIYAQKFQGRVTMTEDTSTDTAYMELSSLRSEDTAVYYCATEWAYYGSGSYLGYWGQGTLVTVSS
VL: EIVMTQSPATLSVSPGERATLSCRASQSVSSNLAWFQQKPGQAPRLLIYGASTRVTVIPARFSGSGSGTEFTLTISSLQSEDFAVYYCQQYNNWPRTFGQGTKVEIKR
B16: anti-SARS-CoV-2 antibody 1015 (antibody, V domains shown)
VH: EVQLVESGGGLVQPGGSLRLSCAASGFTFSSYWMHWVRQAPGKGLVWVSHINSDGSSTSYADSVKGRFTISRDNAKNTLYLQMNSLRAEDTAVYYCARGLRYFDLDVWGQGTTVTVSS
VL: QSVLTQPPSVSEAPRQRVTISCSGSSSNIGNNAVNWYQQLPGKAPKLLIFYDDLLPSGVSDRFSGSKSGTSASLAISGLQSEDEADYYCAAWDDSLNGGVFGGGTKLTVLG
B17: antibody 377 (antibody, V domains shown)
VH: EVQLVESGGGLVKPGGSLRLSCATSGFTFRTYSMNWVRQAPGKGLEWVSSITTSRNYIYYADSVRGRFTISGDNANNSLYLQMNSLRAEDTAVYYCARVRFVRDTRKPYYFDFWGQGTLVTVSS
VL: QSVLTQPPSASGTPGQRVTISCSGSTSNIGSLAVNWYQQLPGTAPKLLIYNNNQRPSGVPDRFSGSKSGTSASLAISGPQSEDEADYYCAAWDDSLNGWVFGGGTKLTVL
B18: antibody 576 (antibody, V domains shown)
VH: B3 VH with R98K, P99A, N100G, S101G, F105Y, G106R, Y107G, Q109D, H110Y
VL: DIQLTQSPSFLSASVGDRVTITCRASQGISSYLAWYQQKPGKAPKLLIYAASTLQSGVPSRFSGSGSGTEFTLTISSLQPEDFATYYCQQLNSYPTFGPGTKVDIK
B19: antibody 577 (antibody, V domains shown)
VH: QLPLQESGPGLVKPSETLSLTCTVSGGSISSSSYYWGWIRQPPGKGLEWIGSIYYSGSTFYNPSLKSRVTISGDTSKNQFSLKVTSVTAADTAVYYCARGSGSSGWYAFDIWGQGTMVTVSS
VL: QSALTQPASVSGSPGQSITISCTGTSSDFGGYNYVSWYQQHPDKAPKLMIYDVSNRPSGVSNRFSGSKSGNTASLTISGLQAEDEADYYCSSYTTSSTWVFGGGTKLTVL
B20: anti-SARS-CoV-2 antibody 278 (antibody, V domains shown)
VH: QVQLVQSGAEVKKPGASVKVSCKASGYTFTSYYMHWVRQAPGQGLEWMGIINPSGGSTSYAQKFQGRVTMTRDTSTSTVYMELSSLRSEDTAVYYCARDHSNADPYYDFWSGYYTRTYYYGMDVWGQGTTVTVSS
VL: not shown
B21: anti-SARS-CoV-2 antibody 307 (antibody, V domains shown)
VH: QVQLVESGGGVVQPGRSLRLSCAASGFTFSSYGMHWVRQAPGKGLEWVAVIWYDGSNKYYADSVKGRFTISRDNSKNTLYLQMNSLRAEDTAVYYCAKGYTWDYYYYGMDVWGQGTTVTVSS
VL: not shown

target: SARS-CoV-2 full length Spike protein, wild type (SARS-CoV-2, UniProt P0DTC2 14-1208); experiment: not given

Binder | median fluorescence, fold over isotype
B1 | 1190 fold over isotype control
B2 | 715 fold over isotype control
B3 | 435 fold over isotype control
B4 | 227 fold over isotype control
B5 | 1090 fold over isotype control

target: SARS-CoV-2 Spike protein (wild type) (SARS-CoV-2, UniProt P0DTC2 14-1208); experiment: SPR (Carterra LSA), mAb coupled to HC30M chip, Spike titrated; Example 4 methods

Binder | Kd
B6 | 0.093 nM
B7 | 0.092 nM
B8 | 0.173 nM
B9 | 0.104 nM
B10 | 0.223 nM
B11 | 0.054 nM

target: Spike protein of authentic SARS-CoV-2/MT020880.1 (live virus) (SARS-CoV-2, UniProt P0DTC2 14-1273); experiment: cell-based or functional assay

Binder | IC50 (ng/mL), immunofluorescence neutralization assay
B12 | 121 ng/mL
B13 | 32.8 ng/mL
B14 | 49.2 ng/mL
B15 | 89.6 ng/mL
B16 | 260 ng/mL

target: SARS-CoV-2 Spike (S) protein, wild type, full length (SARS-CoV-2, UniProt P0DTC2 14-1273); experiment: not given

Binder | fold over isotype (median fluorescence intensity)
B17 | 0.78 fold over isotype

target: SARS-CoV-2 full length Spike protein, wild type, expressed on the surface of transiently transfected CHO cells (SARS-CoV-2, UniProt P0DTC2 14-1273); experiment: not given

Binder | median fluorescence intensity, fold over isotype control
B18 | 8.75 fold over isotype
B19 | 1.14 fold over isotype

target: SARS-CoV-2 Spike protein on pseudotyped lentivirus (SARS-CoV-2, UniProt P0DTC2 14-1273); experiment: cell-based or functional assay

Binder | Pseudo-neutralization IC50
B8 | 0.087 µg/mL
B10 | 0.026 µg/mL

target: Spike protein of SARS-CoV-2 hCoV-19/Canada/ON_ON-VIDO-01-2/202 (live virus) (SARS-CoV-2, UniProt P0DTC2 14-1273); experiment: cell-based or functional assay

Binder | IC50 (µg/mL), plaque reduction neutralization test
B12 | 0.01 µg/mL
B13 | 0.0096 µg/mL
B14 | 0.0083 µg/mL
B15 | 0.409 µg/mL

target: SARS-CoV-2 Spike protein (wild type) (SARS-CoV-2, UniProt P0DTC2 14-1208); experiment: not given

Binder | Kd | kon
B20 | 4.28 nM | 
B21 |  | 101000 M⁻¹ s⁻¹
